Measured values as given in patent US20110002926A1 (MEDICAL RESEARCH COUNCIL, published 2011).
Where no end group is shown, it is not given here.

Experiments:
[1] = biological target: HCV E1E2 glycoproteins of isolate 6.5.8 on HCVpp (Hepatitis C virus genotype 6); assay: cell-based or functional assay
[2] = biological target: HCV E1E2 glycoproteins of isolate 1B5.23 on HCVpp (Hepatitis C virus genotype 1); assay: cell-based or functional assay
[3] = biological target: HCV E1E2 glycoproteins of genotype 2a JFH1 on HCVpp (Hepatitis C virus genotype 2a, UniProt Q99IB8 384-750; Q99IB8 192-383); assay: cell-based or functional assay
[4] = biological target: HCV E1E2 glycoproteins of isolate 5.15.11 on HCVpp (Hepatitis C virus genotype 5); assay: cell-based or functional assay
[5] = biological target: HCV E1E2 glycoproteins of isolate 2B1.1 on HCVpp (Hepatitis C virus genotype 2); assay: cell-based or functional assay
[6] = biological target: HCV E1E2 glycoproteins of genotype 3a F4/2-35 on HCVpp (Hepatitis C virus genotype 3a); assay: cell-based or functional assay
[7] = biological target: HCV E1E2 glycoproteins of isolate 4.21.16 on HCVpp (Hepatitis C virus genotype 4); assay: cell-based or functional assay
[8] = biological target: HCV E1E2 glycoproteins of isolate 1A20.8 on HCVpp (Hepatitis C virus genotype 1); assay: cell-based or functional assay
[9] = biological target: HCV E1E2 glycoproteins of isolate 2A2.4 on HCVpp (Hepatitis C virus genotype 2); assay: cell-based or functional assay
[10] = biological target: T1, HCV E2 as part of the E1E2 heterodimer expressed on the surface of 293T cells (Hepatitis C virus (genotype )); assay: Scatchard analysis, 125I-antibody competition with unlabeled antibody on E1E2-transfected 293T cells
T1 construct: whole, on cells; also called E1E2 Scatchard; cell surface expressed E2

[11] = biological target: T2, soluble HCV E2 (sE2661), HIS-tagged, baculovirus expressed (Hepatitis C virus (genotype )); assay: BIAcore SPR, antibody captured on anti-human Fc chip, sE2 1.56-50 nM injected, 1:1 Langmuir fit
T2 construct: extracellular domain; also called soluble E2

[12] = biological target: HCV E1E2 glycoproteins of genotype 2a (J6) (Hepatitis C virus genotype 2a (J6), UniProt P26660 384-750; P26660 192-383); assay: cell-based or functional assay
[13] = biological target: HCV E1E2 glycoproteins of genotype 1b (Con1) (Hepatitis C virus genotype 1b (Con1), UniProt Q9WMX2 384-746; Q9WMX2 192-383); assay: cell-based or functional assay
Peptide D3 = biological target: T3, Peptide D3 (also: C-terminal linker GSGK-biotin, biotin attachment not given here); assay: peptide ELISA, biotinylated peptide on streptavidin, COS7 supernatant, OD 655 nm
T3 peptide: QLINTNGSWHINGSGK

E2 peptide B1 = biological target: T4, E2 peptide B1 (not fully specified (residue 16, C-terminus); also: biotin at C-terminal GSGK, site not given here); assay: as above
T4 peptide: NLINTNGSWHINGSGK

[14] = biological target: T5, peptide H6 (AP33 mimotope) (not fully specified (residue 16, C-terminus); printed as VELRNLGGTWRPGSGK-biotin; also: biotin at C-terminal GSGK, site not given here); assay: as above
T5 construct: Mimotope for AP33 identified by phage display; captured on streptavidin plates; also called mimotope H6; H6 mimotope
T5 peptide: VELRNLGGTWRPGSGK

HCV E1E2 glycoproteins of genotype 2a JFH1 on HCVpp, sequence (Q99IB8 384-750 limits assumed, chain 1 of 2): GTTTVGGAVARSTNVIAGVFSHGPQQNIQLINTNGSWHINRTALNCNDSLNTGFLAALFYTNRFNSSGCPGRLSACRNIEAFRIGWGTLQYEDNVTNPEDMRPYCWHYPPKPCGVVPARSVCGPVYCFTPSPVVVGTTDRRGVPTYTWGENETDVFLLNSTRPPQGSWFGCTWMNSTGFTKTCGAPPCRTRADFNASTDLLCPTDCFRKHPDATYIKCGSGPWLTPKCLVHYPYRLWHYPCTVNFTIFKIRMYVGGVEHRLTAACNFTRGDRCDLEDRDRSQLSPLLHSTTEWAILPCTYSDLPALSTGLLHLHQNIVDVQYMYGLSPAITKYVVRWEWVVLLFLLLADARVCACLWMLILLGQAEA
HCV E1E2 glycoproteins of genotype 2a JFH1 on HCVpp, sequence (Q99IB8 192-383 limits assumed, chain 2 of 2): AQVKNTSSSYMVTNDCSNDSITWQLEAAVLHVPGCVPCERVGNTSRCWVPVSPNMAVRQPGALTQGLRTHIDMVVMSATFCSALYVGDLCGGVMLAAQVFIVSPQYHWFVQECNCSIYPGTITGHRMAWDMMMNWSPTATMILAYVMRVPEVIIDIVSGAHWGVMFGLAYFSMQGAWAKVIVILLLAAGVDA
HCV E1E2 glycoproteins of genotype 1b (Con1), sequence (Q9WMX2 384-746 limits assumed, chain 1 of 2): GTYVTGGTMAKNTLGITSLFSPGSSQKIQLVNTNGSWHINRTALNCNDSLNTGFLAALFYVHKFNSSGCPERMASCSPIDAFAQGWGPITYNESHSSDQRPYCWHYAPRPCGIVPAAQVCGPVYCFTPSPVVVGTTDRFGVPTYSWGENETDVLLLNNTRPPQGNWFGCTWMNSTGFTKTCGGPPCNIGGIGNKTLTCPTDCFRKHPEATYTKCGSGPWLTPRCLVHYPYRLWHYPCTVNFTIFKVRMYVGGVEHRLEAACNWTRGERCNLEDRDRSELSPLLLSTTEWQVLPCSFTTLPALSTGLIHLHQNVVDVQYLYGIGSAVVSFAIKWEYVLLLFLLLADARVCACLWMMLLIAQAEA
HCV E1E2 glycoproteins of genotype 1b (Con1), sequence (Q9WMX2 192-383 limits assumed, chain 2 of 2): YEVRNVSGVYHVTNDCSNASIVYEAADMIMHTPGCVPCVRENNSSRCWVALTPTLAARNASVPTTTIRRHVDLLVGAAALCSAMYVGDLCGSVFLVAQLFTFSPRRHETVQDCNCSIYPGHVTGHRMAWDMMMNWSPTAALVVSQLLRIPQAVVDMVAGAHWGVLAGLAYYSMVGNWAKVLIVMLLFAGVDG

B1: humanized AP33 antibody RH-C/RK2b (antibody, V domains shown)
VH: QVQLQESGPGLVKPSETLSLTCTVSGDSITSGYWNWIRQPPGRALEWMGYISYSGSTYYNLSLRSRITISRDTSKNQYSLRLSSVTAADTAMYYCALITTTTYAMDYWGQGTTVTVSS
VL: EIVLTQSPSSLSASVGDRVTITCRASESVDGYGNSFLHWFQQKPGKAPKLLIYLASNLNSGVPSRFSGSGSGTDFTLTISSLQPEDFATYYCQQNNVDPWTFGQGTKLEIK
notes: also called RH-C antibody
IC50 of HCVpp infection of Huh-7 cells (luciferase) [1]: < 0.41 µg/mL | IC90 of HCVpp infection of Huh-7 cells (luciferase) [1]: 1.8 µg/mL | IC50 of HCVpp infection of Huh-7 cells (luciferase) [2]: 0.9 µg/mL | IC90 of HCVpp infection of Huh-7 cells (luciferase) [2]: 8.3 µg/mL | IC50 of HCVpp infection of Huh-7 cells (luciferase) [3]: 0.64 µg/mL | IC90 of HCVpp infection of Huh-7 cells (luciferase) [3]: 7 µg/mL | IC50 of HCVpp infection of Huh-7 cells (luciferase) [4]: 0.053 µg/mL | IC90 of HCVpp infection of Huh-7 cells (luciferase) [4]: 0.82 µg/mL | IC50 of HCVpp infection of Huh-7 cells (luciferase) [5]: 3 µg/mL | IC90 of HCVpp infection of Huh-7 cells (luciferase) [5]: > 15 µg/mL | IC50 of HCVpp infection of Huh-7 cells (luciferase) [6]: < 0.41 µg/mL | IC90 of HCVpp infection of Huh-7 cells (luciferase) [6]: 2.15 µg/mL | IC50 of HCVpp infection of Huh-7 cells (luciferase) [7]: < 0.41 µg/mL | IC90 of HCVpp infection of Huh-7 cells (luciferase) [7]: 0.92 µg/mL | IC50 of HCVpp infection of Huh-7 cells (luciferase) [8]: 1.6 µg/mL | IC90 of HCVpp infection of Huh-7 cells (luciferase) [8]: 15 µg/mL | IC50 of HCVpp infection of Huh-7 cells (luciferase) [9]: 0.51 µg/mL | IC90 of HCVpp infection of Huh-7 cells (luciferase) [9]: 6 µg/mL | Kd [10]: 5 nM | Kd [11]: 3.8 nM | EC50 of HCVpp entry into Huh-7.5 cells (luciferase) [12]: 0.793 µg/mL | neutralization of HCVcc infection of Huh-7.5 cells (RT-qPCR), fold against AP33 [12]: ≥ 4.7 fold | EC50 of HCVpp entry into Huh-7.5 cells (luciferase) [13]: 0.511 µg/mL

B2: RHb-h/Vl (humanized heavy chain RHb-h with chimeric AP33 light chain) (antibody, V domains shown)
VH: QVQLQESGPGLVKPSETLSLTCTVSGDSITSGYWNWIRQPPGRALEYMGYISYSGSTYYNLSLRSRITISRDTSKNQYSLRLSSVTAADTAMYYCALITTTTYAMDYWGQGTTVTVS
VL: NIVLTQSPVSLAVSLGQRATISCRASESVDGYGNSFLHWFQQKPGQPPKLLIYLASNLNSGVPARFSGSGSRTDFTLTIDPVEADDAATYYCQQNNVDPWTFGGGTKLEIK
notes: also called RHb-h/V1; the humanized heavy chain
EC50 (read off the curve) (Peptide D3): ~0.02 µg/mL | binding result (E2 peptide B1): no binding (tested: about 500 ng/ml) | EC50 (read off the curve) [14]: ~0.02 µg/mL
